Usually Kd stands for the concentration at which binding is half-saturated. Usually koff stands for the first-order rate constant of dissociation. A low value points to slow dissociation. As usually defined, the kon is the second-order rate constant of association. High values mean faster complex formation, low ones slower complex formation. By EC50 (read off the curve) is commonly meant the concentration at which the effect is half-maximal. Higher therefore signals a less potent agent. As usually defined, the EC50 is the concentration giving half of the maximal effect. Lower therefore signals higher potency in that assay.

Test [1] deals with T1, human 4Ig-B7-H3-His protein (human, UniProt Q5ZPR3 29-466).
T1 construct: also called human B7-H3 protein
T1 sequence: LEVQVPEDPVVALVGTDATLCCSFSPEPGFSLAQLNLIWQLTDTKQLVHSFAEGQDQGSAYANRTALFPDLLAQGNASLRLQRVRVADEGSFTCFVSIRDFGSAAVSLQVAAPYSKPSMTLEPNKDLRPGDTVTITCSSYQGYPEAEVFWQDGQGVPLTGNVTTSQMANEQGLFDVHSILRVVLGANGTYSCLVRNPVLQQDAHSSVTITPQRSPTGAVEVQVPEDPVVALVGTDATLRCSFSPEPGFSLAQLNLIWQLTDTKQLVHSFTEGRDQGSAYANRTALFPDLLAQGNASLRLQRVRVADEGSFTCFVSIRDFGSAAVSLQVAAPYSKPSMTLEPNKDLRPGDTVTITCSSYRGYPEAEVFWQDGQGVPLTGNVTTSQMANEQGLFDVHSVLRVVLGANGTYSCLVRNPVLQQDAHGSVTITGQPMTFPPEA
Briefly: Biacore X100 SPR, 4Ig-B7-H3-His coupled to CM5 chip, antibody injected. The text has this:
The humanized anti-B7-H3 antibodies prepared in Example 4 were subjected to affinity assay by Biacore. The antigen 4Ig-B7-H3-His was first coupled to the surface of a CM5 chip (GE, Cat. No. BR100012), and the active groups of the uncoupled protein were blocked with ethanolamine. After the baseline was stable, the hu39-01, hu65-13, and hBRCA84D antibodies were respectively diluted in equal proportions. The diluted antibodies of each concentration were placed on the sample injection tray of the instrument in sequence, and the program was set to inject samples respectively.
(Surface plasmon resonance follows binding to a sensor surface in real time, without labels.)

For test [2], the target named is T2, Cynomolgus B7-H3-His (Sino Biological, Cat. No. 90806-C08H) (cynomolgus monkey).
T2 construct: Bought reagent; also called cynomolgus monkey B7-H3; monkey B7-H3
Briefly: ELISA, plate coated with cynomolgus B7-H3-His, detection with anti-human IgG HRP, OD450. Here is the method:
The binding activity of antibodies was analyzed by protein based ELISA. Cynomolgus B7-H3-His (0.5 μg/well, Sino Biological, Cat. No. 90806-C08H) was coated on 96-well ELISA plates. The anti-B7-H3 antibodies of the present disclosure was used as the primary antibody and added to the ELISA plates in 5-fold gradient dilution starting from 2 μg/mL with a total of 8 concentrations: 2,000 ng/mL, 400 ng/mL, 80 ng/mL, 16 ng/mL, 3.2 ng/mL, 0.64 ng/mL, 0.128 ng/mL, and 0.0256 ng/mL respectively. The plates were incubated at 37° C. for 2 h with AB06.12-4P as the positive control antibody. Anti-Human IgG HRP (Jackson, 109-035-003, 1:10,000) was used as the secondary antibody. Color developing solution TMB (3,3′,5,5′-tetramethylbenzidine) was added to the plate, and microplate reader (Thermo, Multiskan FC) was used to read OD450 value after termination of the reaction. EC₅₀ was generated by GraphPad.
In general terms: An ELISA detects its analyte on a solid surface through an enzyme-linked reagent.

Test [3] has as its target T3, B7-H3 on surface of tumor cell (786-0, MDA-MB-231, Raji-B7-H3 cells) (human, UniProt Q5ZPR3 29-534).
T3 construct: whole, on cells; The making of Raji-B7-H3 cells is not described; also called B7-H3 on the surface of tumor cells; human B7-H3
T3 sequence (looked up): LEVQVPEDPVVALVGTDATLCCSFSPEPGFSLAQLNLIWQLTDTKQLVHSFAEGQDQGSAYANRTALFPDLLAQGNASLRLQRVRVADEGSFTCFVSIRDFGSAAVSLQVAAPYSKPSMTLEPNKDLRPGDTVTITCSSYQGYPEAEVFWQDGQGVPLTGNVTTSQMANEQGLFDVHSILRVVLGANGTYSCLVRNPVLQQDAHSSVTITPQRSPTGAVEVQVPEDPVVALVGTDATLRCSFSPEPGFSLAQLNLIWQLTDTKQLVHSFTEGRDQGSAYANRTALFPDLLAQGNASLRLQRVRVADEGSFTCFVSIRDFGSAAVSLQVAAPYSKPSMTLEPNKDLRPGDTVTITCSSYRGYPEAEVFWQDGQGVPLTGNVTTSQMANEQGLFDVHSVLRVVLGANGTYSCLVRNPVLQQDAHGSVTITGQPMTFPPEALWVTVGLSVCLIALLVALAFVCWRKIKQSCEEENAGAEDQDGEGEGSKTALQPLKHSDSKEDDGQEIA
Briefly: FACS on MDA-MB-231 cells. The procedure:
(§1) The binding activity of antibodies to B7-H3 on the surface of tumor cells was analyzed by FACS. Mean fluorescence intensity (MFI) and EC₅₀ detected by FACS indicate the binding activity of the antibody to cells. After 786-0 and MDA-MB-231 cells were digested, they were resuspended in 2% FBS-PBS solution and counted. After raji-B7-H3 cells were collected, they were resuspended in 2% FBS-PBS and counted. The above cells were plated in a cell plate with 1×10⁵ cells per well. The anti-B7-H3 antibody of the present disclosure was used as the primary antibody and added to cell plates in gradient dilution starting from 20 μg/mL with a total of 8 concentrations: 20,000 ng/mL, […], 2,000 ng/mL, 400 ng/mL, 80 ng/mL, 16 ng/mL, 3.2 ng/mL, and 0.64 ng/mL respectively. The plates were incubated at 4° C. for 1 h with hBRCA84D as the positive control antibody. PE-Anti-Human IgG (Biolegend, Cat. No. 409303, 1.25 μl/well) was used as the secondary antibody, washed, and detected for the fluorescence intensity generated by the binding of the antibody to the cell surface by a flow cytometer.

In test [4] the target is T3, B7-H3 on surface of tumor cell (786-0, …). Briefly: FACS on 786-0 cells. Here is the method: as §1
Test [5] addresses T1, human 4Ig-B7-H3-His protein. Briefly: ELISA, plate coated with human 4Ig-B7-H3-His, detection with anti-human IgG HRP, OD450. Here is the method: (§2) The binding activity of antibodies was analyzed by ELISA. 96-well ELISA plates were coated with human 4Ig-B7-H3-His protein or 2Ig-B7-H3-His protein (1 μg/well, prepared in Examples 1 and 2) and incubated overnight at 4° C. The plates were washed 3 times with 1×PBST and then blocked with 5% skim milk at 37° C. for 2 h. After washing 3 times with 1×PBST, the anti-B7-H3 antibody of the present disclosure was used as the primary antibody and added to the ELISA plates in 5-fold gradient dilution starting from 2 μg/mL with a total of 8 concentrations: 2,000 ng/mL, 400 ng/mL, 80 ng/mL, 16 ng/mL, 3.2 ng/mL, 0.64 ng/mL, 0.128 ng/mL and 0.0256 ng/mL respectively. The plates were incubated at 37° C. for 2 h with hBRCA84D as the positive control antibody. After washing 5 times with 1×PBST, Anti-Human IgG HRP (Jackson, 109-035-003, 1:5000) was used as the secondary antibody and incubated at 37° C. for 1 h. After washing 5 times with 1×PBST, color developing solution TMB was added to the plate, and microplate reader (Thermo, Multiskan FC) was used to read OD450 value after termination of the reaction. EC₅₀ was generated by GraphPad.

The target of test [6] is T4, human 2Ig-B7-H3-His protein (human, UniProt Q5ZPR3 29-463).
T4 sequence: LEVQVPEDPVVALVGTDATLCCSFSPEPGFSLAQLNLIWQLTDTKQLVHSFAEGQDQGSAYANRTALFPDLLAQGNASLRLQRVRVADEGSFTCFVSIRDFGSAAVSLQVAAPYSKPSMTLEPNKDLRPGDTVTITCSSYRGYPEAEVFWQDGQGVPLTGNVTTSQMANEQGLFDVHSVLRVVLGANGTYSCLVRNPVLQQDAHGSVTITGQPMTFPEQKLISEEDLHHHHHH
Briefly: ELISA, plate coated with human 2Ig-B7-H3-His, detection with anti-human IgG HRP, OD450. Here is the method:
as §2

Test [7] deals with T3, B7-H3 on surface of tumor cell (786-0, …). Briefly: FACS on Raji-B7-H3 cells. The procedure:
as §1

B1: hu51-G34K-12 (antibody, human IgG1, V domains shown)
VH: EVQLVESGGGLVKPGGSLRLSCAASGFTFSSFGMSWVRQAPGKGLEWVATINSGDNYSYSPDSVKGRFTISRDNAKNSLYLQMNSLRAEDTAVYYCARPHIFYYGSPAWFAYWGQGTLVTVSS
VL: DVVMTQSPLSLPVTLGQPASISCRSRQSLVHSNKNTYLHWFQQRPGQSPRLLIYKVSNRFSGVPDRFSGSGSGTDFTLKISRVEAEDVGVYYCSQSTHVPLTFGGGTKVEIK
notes: expressed in HEK293E; also called humanized anti-B7-H3 antibody hu51-G34K-12
B1 displayed a Kd in test [1] of 0.49 nM. Besides, in test [1], the koff is 0.000385 s⁻¹. This molecule returned an association rate constant (kon) in test [1] of 785000 M⁻¹ s⁻¹. Further, the “EC50 (read off the curve)” value is about 0.006 µg/mL in test [2], about 0.005 µg/mL in test [5] and about 0.005 µg/mL in test [6]. For the same molecule, the EC50 was 0.0501 µg/mL in test [3], 0.12 µg/mL in test [4] and 0.12 µg/mL in test [7]. The “Mean fluorescence intensity (MFI)” value was determined as 156000 in test [3], 584000 in test [4] and 584000 in test [7].

The values above are taken from patent US20220332829A1 (NANJING SANHOME PHARMACEUTICAL, published 2022).
